From patent US20120220015

T1: fibrin (clot formed from purified fibrinogen with α-thrombin), P02671
T1 chain 1: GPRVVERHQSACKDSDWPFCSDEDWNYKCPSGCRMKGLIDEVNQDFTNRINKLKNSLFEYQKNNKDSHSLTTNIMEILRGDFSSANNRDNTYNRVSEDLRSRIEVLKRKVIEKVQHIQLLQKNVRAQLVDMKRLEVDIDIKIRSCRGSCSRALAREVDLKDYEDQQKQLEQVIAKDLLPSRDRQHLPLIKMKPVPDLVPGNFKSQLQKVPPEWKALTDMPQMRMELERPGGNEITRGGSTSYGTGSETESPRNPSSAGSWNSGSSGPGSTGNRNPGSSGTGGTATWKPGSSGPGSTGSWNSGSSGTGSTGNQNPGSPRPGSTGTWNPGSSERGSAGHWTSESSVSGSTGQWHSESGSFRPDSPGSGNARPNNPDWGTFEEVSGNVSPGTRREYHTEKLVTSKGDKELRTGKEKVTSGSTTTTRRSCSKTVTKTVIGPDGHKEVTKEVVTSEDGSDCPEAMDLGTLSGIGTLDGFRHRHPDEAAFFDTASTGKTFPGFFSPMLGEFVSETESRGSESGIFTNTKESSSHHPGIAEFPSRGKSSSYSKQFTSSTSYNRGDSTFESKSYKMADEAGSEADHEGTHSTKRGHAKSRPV
T1 chain 2: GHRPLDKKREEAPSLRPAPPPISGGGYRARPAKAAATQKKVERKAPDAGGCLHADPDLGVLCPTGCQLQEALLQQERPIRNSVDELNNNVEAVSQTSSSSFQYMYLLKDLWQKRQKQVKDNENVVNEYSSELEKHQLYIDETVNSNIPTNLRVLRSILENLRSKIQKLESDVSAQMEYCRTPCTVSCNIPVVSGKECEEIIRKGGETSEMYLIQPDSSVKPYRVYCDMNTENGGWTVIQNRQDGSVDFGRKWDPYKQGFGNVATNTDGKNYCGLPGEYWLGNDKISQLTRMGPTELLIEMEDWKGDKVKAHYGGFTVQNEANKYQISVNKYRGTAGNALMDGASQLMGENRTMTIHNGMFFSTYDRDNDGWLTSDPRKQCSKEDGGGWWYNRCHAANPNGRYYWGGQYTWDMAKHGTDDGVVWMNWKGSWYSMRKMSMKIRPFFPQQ
T1 chain 3: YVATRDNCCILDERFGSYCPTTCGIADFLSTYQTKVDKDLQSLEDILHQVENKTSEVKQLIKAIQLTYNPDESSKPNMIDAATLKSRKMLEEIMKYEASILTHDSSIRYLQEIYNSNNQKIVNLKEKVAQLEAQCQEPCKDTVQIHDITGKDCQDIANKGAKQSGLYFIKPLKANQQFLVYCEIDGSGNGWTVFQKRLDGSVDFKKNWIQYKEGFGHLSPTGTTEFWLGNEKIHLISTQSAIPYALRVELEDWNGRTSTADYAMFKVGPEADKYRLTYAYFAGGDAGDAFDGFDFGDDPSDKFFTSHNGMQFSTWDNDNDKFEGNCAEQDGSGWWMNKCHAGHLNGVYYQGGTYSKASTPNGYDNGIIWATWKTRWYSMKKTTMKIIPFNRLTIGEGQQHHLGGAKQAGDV

T2: α2-antiplasmin, P08697
T2 chain: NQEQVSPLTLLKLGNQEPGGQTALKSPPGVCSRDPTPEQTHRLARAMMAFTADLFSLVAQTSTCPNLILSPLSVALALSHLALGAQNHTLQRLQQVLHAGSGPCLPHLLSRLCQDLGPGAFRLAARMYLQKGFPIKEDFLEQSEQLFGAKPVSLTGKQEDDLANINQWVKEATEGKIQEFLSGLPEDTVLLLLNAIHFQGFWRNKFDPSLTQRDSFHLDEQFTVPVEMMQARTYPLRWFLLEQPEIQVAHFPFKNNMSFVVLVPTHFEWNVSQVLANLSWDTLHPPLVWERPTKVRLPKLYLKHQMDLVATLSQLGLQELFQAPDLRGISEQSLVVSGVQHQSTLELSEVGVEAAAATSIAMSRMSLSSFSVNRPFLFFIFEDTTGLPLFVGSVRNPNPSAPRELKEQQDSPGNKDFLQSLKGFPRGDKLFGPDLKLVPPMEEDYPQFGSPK

B1: Lemna-derived plasmin from transgenic line BAP12-B2-150 (aglycosylated plasmin derived from mature human plasminogen with the N289D substitution) (protein)
chain 1: KVYLSECKTGNGKNYRGTMSKTKNGITCQKWSSTSPHRPRFSPATHPSEGLEENYCRNPDNDPQGPWCYTTDPEKRYDYCDILECEEECMHCSGENYDGKISKTMSGLECQAWDSQSPHAHGYIPSKFPNKNLKKNYCRNPDRELRPWCFTTDPNKRWELCDIPRCTTPPPSSGPTYQCLKGTGENYRGNVAVTVSGHTCQHWSAQTPHTHDRTPENFPCKNLDENYCRNPDGKRAPWCHTTNSQVRWEYCKIPSCDSSPVSTEQLAPTAPPELTPVVQDCYHGDGQSYRGTSSTTTTGKKCQSWSSMTPHRHQKTPENYPNAGLTMNYCRNPDADKGPWCFTTDPSVRWEYCNLKKCSGTEASVVAPPPVVLLPDVETPSEEDCMFGNGKGYRGKRATTVTGTPCQDWAAQEPHRHSIFTPETNPRAGLEKNYCRNPDGDVGGPWCYTTNPRKLYDYCDVPQCAAPSFDCGKPQVEPKKCPGR
chain 2: VVGGCVAHPHSWPWQVSLRTRFGMHFCGGTLISPEWVLTAAHCLEKSPRPSSYKVILGAHQEVNLEPHVQEIEVSRLFLEPTRKDIALLKLSSPAVITDKVIPACLPSPNYVVADRTECFVTGWGETQGTFGAGLLKEAQLPVIENKVCNRYEFLNGRVQSTELCAGHLAGGTDSCQGDSGGPLVCFEKDKYILQGVTSWGLGCARPNKPGVYVRVSRFVTWIEGVMRNN
B2: Lemna-derived plasmin from transgenic line BAP01-B2-230 (derived from mature human plasminogen with the N-linked glycosylation site Asn-289) (protein)
chain 1: KVYLSECKTGNGKNYRGTMSKTKNGITCQKWSSTSPHRPRFSPATHPSEGLEENYCRNPDNDPQGPWCYTTDPEKRYDYCDILECEEECMHCSGENYDGKISKTMSGLECQAWDSQSPHAHGYIPSKFPNKNLKKNYCRNPDRELRPWCFTTDPNKRWELCDIPRCTTPPPSSGPTYQCLKGTGENYRGNVAVTVSGHTCQHWSAQTPHTHNRTPENFPCKNLDENYCRNPDGKRAPWCHTTNSQVRWEYCKIPSCDSSPVSTEQLAPTAPPELTPVVQDCYHGDGQSYRGTSSTTTTGKKCQSWSSMTPHRHQKTPENYPNAGLTMNYCRNPDADKGPWCFTTDPSVRWEYCNLKKCSGTEASVVAPPPVVLLPDVETPSEEDCMFGNGKGYRGKRATTVTGTPCQDWAAQEPHRHSIFTPETNPRAGLEKNYCRNPDGDVGGPWCYTTNPRKLYDYCDVPQCAAPSFDCGKPQVEPKKCPGR
chain 2: VVGGCVAHPHSWPWQVSLRTRFGMHFCGGTLISPEWVLTAAHCLEKSPRPSSYKVILGAHQEVNLEPHVQEIEVSRLFLEPTRKDIALLKLSSPAVITDKVIPACLPSPNYVVADRTECFVTGWGETQGTFGAGLLKEAQLPVIENKVCNRYEFLNGRVQSTELCAGHLAGGTDSCQGDSGGPLVCFEKDKYILQGVTSWGLGCARPNKPGVYVRVSRFVTWIEGVMRNN

Columns and labels:
[1] = biological target: T1, fibrin (clot formed from purified …)
[2] = biological target: T2, α2-antiplasmin, P08697

Protein | fibrin clot lysis (decrease of turbidity at 340 nm), plasmin at 500, 250, 125 and 62 nM [1] | plasmin activity (S-2403 hydrolysis at 405 nm) after 30 minutes pre-incubation with α2-AP, plasmin:α2-AP molar ratio of 1:1 [2]
B1 | There was no evidence of a difference between fibrinolysis induced by plasmin derived from BAP01-B2-230 and BAP12-B2-150; their respective lysis profiles were very similar for all four plasmin concentrations | no plasmin activity was detected for human, BAP12-B2-150, or BAP01-B1-230 plasmin, indicating that the inhibition was complete
B2 | There was no evidence of a difference between fibrinolysis induced by plasmin derived from BAP01-B2-230 and BAP12-B2-150; their respective lysis profiles were very similar for all four plasmin concentrations | no plasmin activity was detected for human, BAP12-B2-150, or BAP01-B1-230 plasmin, indicating that the inhibition was complete
